Test results as given in publication doi:10.1101/2023.09.21.558905.

T1: GUN1 (132-918) (Arabidopsis thaliana, UniProt Q9SIC9 132-918)
T1 sequence: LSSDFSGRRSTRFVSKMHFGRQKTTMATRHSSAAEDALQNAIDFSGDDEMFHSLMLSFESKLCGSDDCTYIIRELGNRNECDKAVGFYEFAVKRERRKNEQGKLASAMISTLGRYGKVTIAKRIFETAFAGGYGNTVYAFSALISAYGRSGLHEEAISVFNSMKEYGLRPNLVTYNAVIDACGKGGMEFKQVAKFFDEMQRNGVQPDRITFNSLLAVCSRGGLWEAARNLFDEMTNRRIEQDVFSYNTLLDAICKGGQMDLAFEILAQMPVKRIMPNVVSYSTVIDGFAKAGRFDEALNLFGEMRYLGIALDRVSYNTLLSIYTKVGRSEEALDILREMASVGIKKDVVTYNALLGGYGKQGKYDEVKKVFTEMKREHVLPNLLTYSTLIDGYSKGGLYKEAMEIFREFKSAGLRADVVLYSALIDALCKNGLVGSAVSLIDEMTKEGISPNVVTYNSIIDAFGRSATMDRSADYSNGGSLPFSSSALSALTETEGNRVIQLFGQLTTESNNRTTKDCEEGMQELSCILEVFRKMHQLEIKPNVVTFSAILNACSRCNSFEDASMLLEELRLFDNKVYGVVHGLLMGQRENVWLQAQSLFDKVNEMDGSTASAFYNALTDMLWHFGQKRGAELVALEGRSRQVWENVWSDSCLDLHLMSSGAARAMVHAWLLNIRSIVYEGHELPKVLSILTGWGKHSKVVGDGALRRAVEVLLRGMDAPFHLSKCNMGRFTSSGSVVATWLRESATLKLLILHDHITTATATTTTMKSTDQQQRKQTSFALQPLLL


molecular target: T1, GUN1 (132-918); test: EMSA

Row | Binder | binding result
1 | GGACCGAAUGAUCUAUCUCU (ssRNA) [RNA3] | no binding
2 | GGAAAUCCGUCGAUAUCUCU (ssRNA) [RNA1 (psbD BLRP 5'-UTR)] | binds
3 | GGACCUCCUUCUCUAUCUCU (ssRNA) [RNA2] | no binding
